Key:
[1] = target: SLPI binding sites on elutriated human peripheral blood monocytes (human); assay: 125I-SLPI binding to intact monocytes
[2] = target: SLPI binding sites on U937 cells (human monocyte cell line; intact cells, PMA-induced cells or plasma membranes) (human); assay: 125I-SLPI saturation binding, intact U937 cells, *SLPI at 40 pM
[3] = target: SLPI binding sites on U937 cells (human monocyte cell line; intact cells, PMA-induced cells or plasma membranes) (human); assay: 125I-SLPI saturation binding, intact U937 cells, *SLPI at 80 pM
[4] = target: SLPI binding sites on HuT78 cells (human T cell line) (human); assay: 125I-SLPI saturation binding, intact HuT78 cells, *SLPI at 40 pM
[5] = target: SLPI binding sites on U937 cells (human monocyte cell line; intact cells, PMA-induced cells or plasma membranes) (human); assay: 125I-SLPI saturation binding, intact U937 cells, *SLPI at 160 pM
[6] = target: SLPI binding sites on U937 cells (human monocyte cell line; intact cells, PMA-induced cells or plasma membranes) (human); assay: 125I-SLPI saturation binding, intact U937 cells, *SLPI at 2560 pM
[7] = target: SLPI binding sites on U937 cells (human monocyte cell line; intact cells, PMA-induced cells or plasma membranes) (human); assay: 125I-SLPI saturation binding, U937 cells plus PMA, *SLPI at 80 pM
[8] = target: SLPI binding sites on U937 cells (human monocyte cell line; intact cells, PMA-induced cells or plasma membranes) (human); assay: competition with 125I-SLPI, intact U937 cells, competitor at 0 nM
[9] = target: SLPI binding sites on U937 cells (human monocyte cell line; intact cells, PMA-induced cells or plasma membranes) (human); assay: 125I-SLPI saturation binding, U937 cells minus PMA, *SLPI at 80 pM
[10] = target: SLPI binding sites on HuT78 cells (human T cell line) (human); assay: competition with 125I-SLPI, intact HuT78 cells, cold SLPI at 84 nM
[11] = target: SLPI binding sites on U937 cells (human monocyte cell line; intact cells, PMA-induced cells or plasma membranes) (human); assay: competition with 125I-SLPI, intact U937 cells, competitor at 26 nM
[12] = target: SLPI binding sites on U937 cells (human monocyte cell line; intact cells, PMA-induced cells or plasma membranes) (human); assay: 125I-SLPI saturation binding, intact U937 cells, *SLPI at 20,480 pM
[13] = target: SLPI binding sites on HuT78 cells (human T cell line) (human); assay: competition with 125I-SLPI, intact HuT78 cells, cold SLPI at 270 nM
[14] = target: SLPI binding sites on U937 cells (human monocyte cell line; intact cells, PMA-induced cells or plasma membranes) (human); assay: competition with 125I-SLPI, intact U937 cells, cold SLPI at 0.25 nM
[15] = target: SLPI binding sites on U937 cells (human monocyte cell line; intact cells, PMA-induced cells or plasma membranes) (human); assay: competition with 125I-SLPI, intact U937 cells, cold SLPI at 0.80 nM
[16] = target: SLPI binding sites on U937 cells (human monocyte cell line; intact cells, PMA-induced cells or plasma membranes) (human); assay: competition with 125I-SLPI, intact U937 cells, cold SLPI at 2750 nM
[17] = target: SLPI binding sites on HuT78 cells (human T cell line) (human); assay: competition with 125I-SLPI, intact HuT78 cells, Kd by Cheng-Prusoff
[18] = target: SLPI binding sites on U937 cells (human monocyte cell line; intact cells, PMA-induced cells or plasma membranes) (human); assay: competition with 125I-SLPI, intact U937 cells, competitor at 860 nM
[19] = target: SLPI binding sites on HuT78 cells (human T cell line) (human); assay: Scatchard plot of 125I-SLPI saturation binding, intact HuT78 cells
[20] = target: SLPI binding sites on U937 cells (human monocyte cell line; intact cells, PMA-induced cells or plasma membranes) (human); assay: 125I-SLPI saturation binding, U937 cells plus PMA, *SLPI at 1,280 pM
[21] = target: SLPI binding sites on U937 cells (human monocyte cell line; intact cells, PMA-induced cells or plasma membranes) (human); assay: 125I-SLPI saturation binding, U937 cells plus PMA, *SLPI at 5,120 pM
[22] = target: SLPI binding sites on HuT78 cells (human T cell line) (human); assay: competition with 125I-SLPI, intact HuT78 cells, competitor at 8.2 nM
[23] = target: SLPI binding sites on HuT78 cells (human T cell line) (human); assay: competition with 125I-SLPI, intact HuT78 cells, cold SLPI at 0.078 nM
[24] = target: SLPI binding sites on U937 cells (human monocyte cell line; intact cells, PMA-induced cells or plasma membranes) (human); assay: 125I-SLPI saturation binding, U937 cells minus PMA, *SLPI at 20,480 pM
[25] = target: SLPI binding sites on U937 cells (human monocyte cell line; intact cells, PMA-induced cells or plasma membranes) (human); assay: competition with 125I-SLPI, U937 plasma membranes, competitor at 0.800 nM

Sequence of serine leukocyte protease inhibitor (SLPI) (P03973 26-132): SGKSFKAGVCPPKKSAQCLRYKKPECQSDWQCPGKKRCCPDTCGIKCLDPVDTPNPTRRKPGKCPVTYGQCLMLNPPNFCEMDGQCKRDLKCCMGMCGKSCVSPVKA

Substance: serine leukocyte protease inhibitor (SLPI) (from UniProt P03973 26-132)
- *SLPI concentration at saturation (micrograms/ml) [1]: 0.5
- *SLPI concentration required for half-maximal binding [1]: 10 nM
- bound *SLPI (pM) [2]: 9.5 pM
- bound per free [2]: 0.311
- sites bound per cell (sites per cell) [2]: 572
- specific cpm [2]: 380 cpm
- bound *SLPI (pM) [3]: 13.6 pM
- bound per free [3]: 0.205
- sites bound per cell (sites per cell) [3]: 819
- specific cpm [3]: 543 cpm
- specific cpm [4]: 0 cpm
- bound *SLPI (pM) [5]: 32.9 pM
- bound per free [5]: 0.259
- sites bound per cell (sites per cell) [5]: 1980
- specific cpm [5]: 1320 cpm
- bound *SLPI (pM) [6]: 339 pM
- bound per free [6]: 0.153
- sites bound per cell (sites per cell) [6]: 20400
- specific cpm [6]: 13500 cpm
- bound pM [7]: 32 pM
- bound per free [7]: 0.67
- sites bound per cell (sites per cell) [7]: 1910
- specific cpm [7]: 339 cpm
- % *SLPI BOUND [8]: 109%
- bound *SLPI (pM) [9]: 37 pM
- bound per free [9]: 0.86
- sites bound per cell (sites per cell) [9]: 2230
- specific cpm [9]: 400 cpm
- % *SLPI BOUND [10]: 9.3%
- % *SLPI BOUND [11]: 11%
- bound *SLPI (pM) [12]: 471 pM
- bound per free [12]: 0.024
- sites bound per cell (sites per cell) [12]: 28400
- specific cpm [12]: 18800 cpm
- % *SLPI BOUND [13]: 0%
- % *SLPI BOUND [14]: 92%
- % *SLPI BOUND [15]: 77%
- % *SLPI BOUND [16]: 0.5%
- Kd [17]: 2 nM
- % *SLPI BOUND [18]: 4%
- Kd [19]: 2 nM
- bound pM [20]: 130 pM
- bound per free [20]: 0.113
- sites bound per cell (sites per cell) [20]: 7830
- specific cpm [20]: 1390 cpm
- bound pM [21]: 135 pM
- bound per free [21]: 0.027
- sites bound per cell (sites per cell) [21]: 8130
- specific cpm [21]: 1440 cpm
- % *SLPI BOUND [22]: 57%
- % *SLPI BOUND [23]: 90%
- bound *SLPI (pM) [24]: 915 pM
- bound per free [24]: 0.047
- sites bound per cell (sites per cell) [24]: 55100
- specific cpm [24]: 9780 cpm
- CPM *SLPI BOUND [25]: 14800 cpm

From patent publication US6869925 (Amgen, dated 2005)
